B1: ANKRD40 (parent)
chain: SLRENDFIEIELDRQELTYQELLR

Variants of: B1
Assay: protein stability index of a GFP-peptide fusion (GPS, HEK-293T) (PSI 1-6); higher = more stable
Settings: c terminus: a fixed tail appended
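Also: lentivirally expressed fusions sorted by FACS into six bins by GFP to DsRed ratio, PSI derived from sequencing read proportions per bin multiplied by bin number.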

Row | Variant | protein stability index
1 | SLRENDFIEIELDRQDLTYQELLR | 3.24
2 | SLRENDFIEIELDRQMLTYQELLR | 2.6
3 | SLRENDFIEIELDRQRLTYQELLR | 3.04
4 | SLRENDFIEIELDRQGLTYQELLR | 2.91
5 | SLRENDFIEIELDRQILTYQELLR | 2.47
6 | SLRENDFIEIELDRQCLTYQELLR | 2.46
7 | SLRENDFIEIELDRQQLTYQELLR | 3.18
8 | SLRENDFIEIELDRQHLTYQELLR | 2.89
9 | SLRENDFIEIELDRQFLTYQELLR | 2.5
10 | SLRENDFIEIELDRQALTYQELLR | 2.8
11 | SLRENDFIEIELDRQNLTYQELLR | 3.5
12 | SLRENDFIEIELDRQKLTYQELLR | 2.93
13 | SLRENDFIEIELDRQLLTYQELLR | 2.99
14 | SLRENDFIEIELDRQPLTYQELLR | 3.42
15 | SLRENDFIEIEWDRQELTYQELLR | 2.8
16 | SLRENDFIEIEFDRQELTYQELLR | 2.73
17 | SLRENDFIEIEPDRQELTYQELLR | 3.72
18 | SLRENDFIEIEHDRQELTYQELLR | 3.82
19 | SLRENDFIEIEIDRQELTYQELLR | 2.69
20 | SLRENDFIEIEVDRQELTYQELLR | 3.54
21 | SLRENDFIEIEEDRQELTYQELLR | 4.41
22 | SLRENDFIEIECDRQELTYQELLR | 3.88
23 | SLRENDFIEIEADRQELTYQELLR | 3.92
24 | SLRENDFIEIENDRQELTYQELLR | 4.17

Row | Variant | protein stability index
25 | SLRENDFIEIEDDRQELTYQELLR | 4.51
26 | SLRENDFIEIEMDRQELTYQELLR | 2.67
27 | SLRENDFIEIEGDRQELTYQELLR | 4.4
28 | SLRENDFIEIEKDRQELTYQELLR | 3.91
29 | SLRENDFIEIERDRQELTYQELLR | 4.14
30 | SLRENDFIEIETDRQELTYQELLR | 3.88
31 | SLRENDFIEIESDRQELTYQELLR | 4.18
32 | SLRENDFIEIEQDRQELTYQELLR | 4.13
33 | SLRENDFIEIEYDRQELTYQELLR | 3.34
34 | SLRENDFIKIELDRQELTYQELLR | 2.4
35 | SLRENDFILIELDRQELTYQELLR | 2.14
36 | SLRENDFISIELDRQELTYQELLR | 2.73
37 | SLRENDFIGIELDRQELTYQELLR | 3.33
38 | SLRENDFIMIELDRQELTYQELLR | 2.14
39 | SLRENDFIWIELDRQELTYQELLR | 1.57
40 | SLRENDFITIELDRQELTYQELLR | 2
41 | SLRENDFIQIELDRQELTYQELLR | 2.51
42 | SLRENDFICIELDRQELTYQELLR | 2.17
43 | SLRENDFIRIELDRQELTYQELLR | 1.97
44 | SLRENDFIIIELDRQELTYQELLR | 1.63
45 | SLRENDFINIELDRQELTYQELLR | 2.82
46 | SLRENDFIFIELDRQELTYQELLR | 1.82
47 | SLRENDFIHIELDRQELTYQELLR | 2.27
48 | SLRENDFIPIELDRQELTYQELLR | 3.59

Row | Variant | protein stability index
49 | SLRENDFIVIELDRQELTYQELLR | 1.87
50 | SLRENDFIDIELDRQELTYQELLR | 3.47
51 | SLRENDFIYIELDRQELTYQELLR | 2.12
52 | SLRENDFIAIELDRQELTYQELLR | 2.58
53 | SLRENDFIEIELDRYELTYQELLR | 2
54 | SLRENDFIEIELDRPELTYQELLR | 2.78
55 | SLRENDFIEIELDRMELTYQELLR | 2.25
56 | SLRENDFIEIELDRGELTYQELLR | 3.68
57 | SLRENDFIEIELDRFELTYQELLR | 2.09
58 | SLRENDFIEIELDRCELTYQELLR | 2.62
59 | SLRENDFIEIELDRLELTYQELLR | 2.78
60 | SLRENDFIEIELDREELTYQELLR | 3.28
61 | SLRENDFIEIELDRAELTYQELLR | 2.63
62 | SLRENDFIEIELDRHELTYQELLR | 2.75
63 | SLRENDFIEIELDRRELTYQELLR | 3.41
64 | SLRENDFIEIELDRVELTYQELLR | 2.44
65 | SLRENDFIEIELDRTELTYQELLR | 2.91
66 | SLRENDFIEIELDRSELTYQELLR | 3.17
67 | SLRENDFIEIELDRIELTYQELLR | 1.89
68 | SLRENDFIEIELDRNELTYQELLR | 3.35
69 | SLRENDFIEIELDRDELTYQELLR | 3.59
70 | SLRENDFIEIELDRWELTYQELLR | 2.37
71 | SLRENDFIEIELDRKELTYQELLR | 3.29
72 | SLRENDFIECELDRQELTYQELLR | 3.69

Row | Variant | protein stability index
73 | SLRENDFIEHELDRQELTYQELLR | 4.34
74 | SLRENDFIEQELDRQELTYQELLR | 4.26
75 | SLRENDFIEGELDRQELTYQELLR | 3.55
76 | SLRENDFIERELDRQELTYQELLR | 3.53
77 | SLRENDFIEVELDRQELTYQELLR | 3.32
78 | SLRENDFIEAELDRQELTYQELLR | 4.02
79 | SLRENDFIELELDRQELTYQELLR | 3.16
80 | SLRENDFIESELDRQELTYQELLR | 3.68
81 | SLRENDFIEEELDRQELTYQELLR | 4.63
82 | SLRENDFIEWELDRQELTYQELLR | 3.19
83 | SLRENDFIEKELDRQELTYQELLR | 3.48
84 | SLRENDFIENELDRQELTYQELLR | 3.75
85 | SLRENDFIEYELDRQELTYQELLR | 3.33
86 | SLRENDFIEDELDRQELTYQELLR | 4.12
87 | SLRENDFIEFELDRQELTYQELLR | 3.41
88 | SLRENDFIETELDRQELTYQELLR | 4.06
89 | SLRENDFIEMELDRQELTYQELLR | 3.62
90 | SLRENDFIEPELDRQELTYQELLR | 4.24
91 | SLRENDFIEIELGRQELTYQELLR | 2.77
92 | SLRENDFIEIELWRQELTYQELLR | 1.81
93 | SLRENDFIEIELFRQELTYQELLR | 1.99
94 | SLRENDFIEIELYRQELTYQELLR | 1.87
95 | SLRENDFIEIELMRQELTYQELLR | 2.45
96 | SLRENDFIEIELRRQELTYQELLR | 2.65

Row | Variant | protein stability index
97 | SLRENDFIEIELHRQELTYQELLR | 2.22
98 | SLRENDFIEIELIRQELTYQELLR | 1.77
99 | SLRENDFIEIELLRQELTYQELLR | 2.04
100 | SLRENDFIEIELSRQELTYQELLR | 2.54
101 | SLRENDFIEIELQRQELTYQELLR | 2.93
102 | SLRENDFIEIELNRQELTYQELLR | 3.17
103 | SLRENDFIEIELCRQELTYQELLR | 2.35
104 | SLRENDFIEIELVRQELTYQELLR | 1.78
105 | SLRENDFIEIELTRQELTYQELLR | 2.15
106 | SLRENDFIEIELERQELTYQELLR | 2.82
107 | SLRENDFIEIELKRQELTYQELLR | 2.55
108 | SLRENDFIEIELPRQELTYQELLR | 2.77
109 | SLRENDFIEIELARQELTYQELLR | 2.56
110 | SLRENDFIEIHLDRQELTYQELLR | 2.68
111 | SLRENDFIEIFLDRQELTYQELLR | 2.28
112 | SLRENDFIEILLDRQELTYQELLR | 1.94
113 | SLRENDFIEICLDRQELTYQELLR | 2.37
114 | SLRENDFIEIWLDRQELTYQELLR | 1.98
115 | SLRENDFIEIILDRQELTYQELLR | 2.16
116 | SLRENDFIEISLDRQELTYQELLR | 2.45
117 | SLRENDFIEIALDRQELTYQELLR | 3.15
118 | SLRENDFIEIVLDRQELTYQELLR | 2.29
119 | SLRENDFIEINLDRQELTYQELLR | 3.33
120 | SLRENDFIEIQLDRQELTYQELLR | 2.74

Row | Variant | protein stability index
121 | SLRENDFIEIGLDRQELTYQELLR | 3.26
122 | SLRENDFIEIKLDRQELTYQELLR | 2.45
123 | SLRENDFIEITLDRQELTYQELLR | 2.35
124 | SLRENDFIEIRLDRQELTYQELLR | 2.44
125 | SLRENDFIEIDLDRQELTYQELLR | 3.59
126 | SLRENDFIEIPLDRQELTYQELLR | 3.75
127 | SLRENDFIEIMLDRQELTYQELLR | 2.41
128 | SLRENDFIEIYLDRQELTYQELLR | 2.16
129 | SLRENDPIEIELDRQELTYQELLR | 4.05
130 | SLRENDSIEIELDRQELTYQELLR | 4.03
131 | SLRENDVIEIELDRQELTYQELLR | 3.59
132 | SLRENDIIEIELDRQELTYQELLR | 2.91
133 | SLRENDEIEIELDRQELTYQELLR | 4.46
134 | SLRENDRIEIELDRQELTYQELLR | 3.69
135 | SLRENDMIEIELDRQELTYQELLR | 3.33
136 | SLRENDWIEIELDRQELTYQELLR | 3.03
137 | SLRENDLIEIELDRQELTYQELLR | 3.79
138 | SLRENDAIEIELDRQELTYQELLR | 4.21
139 | SLRENDTIEIELDRQELTYQELLR | 3.99
140 | SLRENDDIEIELDRQELTYQELLR | 4.24
141 | SLRENDGIEIELDRQELTYQELLR | 4.18
142 | SLRENDHIEIELDRQELTYQELLR | 3.96
143 | SLRENDYIEIELDRQELTYQELLR | 3.54
144 | SLRENDCIEIELDRQELTYQELLR | 3.87

Row | Variant | protein stability index
145 | SLRENDNIEIELDRQELTYQELLR | 4.05
146 | SLRENDKIEIELDRQELTYQELLR | 4.2
147 | SLRENDQIEIELDRQELTYQELLR | 4.17
148 | SLRENDFIEIELDNQELTYQELLR | 3.54
149 | SLRENDFIEIELDIQELTYQELLR | 2.86
150 | SLRENDFIEIELDGQELTYQELLR | 3
151 | SLRENDFIEIELDYQELTYQELLR | 1.95
152 | SLRENDFIEIELDCQELTYQELLR | 2.09
153 | SLRENDFIEIELDMQELTYQELLR | 1.85
154 | SLRENDFIEIELDEQELTYQELLR | 3.37
155 | SLRENDFIEIELDAQELTYQELLR | 2.87
156 | SLRENDFIEIELDWQELTYQELLR | 1.79
157 | SLRENDFIEIELDSQELTYQELLR | 3.06
158 | SLRENDFIEIELDQQELTYQELLR | 3.41
159 | SLRENDFIEIELDLQELTYQELLR | 1.73
160 | SLRENDFIEIELDKQELTYQELLR | 3.31
161 | SLRENDFIEIELDFQELTYQELLR | 1.44
162 | SLRENDFIEIELDTQELTYQELLR | 3.01
163 | SLRENDFIEIELDDQELTYQELLR | 3.85
164 | SLRENDFIEIELDPQELTYQELLR | 2.86
165 | SLRENDFIEIELDHQELTYQELLR | 2.97
166 | SLRENDFIEIELDVQELTYQELLR | 2.06
167 | SLRENYFIEIELDRQELTYQELLR | 1.9
168 | SLRENWFIEIELDRQELTYQELLR | 2.31

Row | Variant | protein stability index
169 | SLRENVFIEIELDRQELTYQELLR | 1.64
170 | SLRENDFREIELDRQELTYQELLR | 3.89
171 | SLRENDFGEIELDRQELTYQELLR | 3.88
172 | SLRENDFMEIELDRQELTYQELLR | 4.11
173 | SLRENDFEEIELDRQELTYQELLR | 4.46
174 | SLRENDFHEIELDRQELTYQELLR | 3.99
175 | SLRENDFLEIELDRQELTYQELLR | 3.77
176 | SLRENDFKEIELDRQELTYQELLR | 4.02
177 | SLRENDFFEIELDRQELTYQELLR | 2.56
178 | SLRENDFYEIELDRQELTYQELLR | 3.28
179 | SLRENDFCEIELDRQELTYQELLR | 3.57
180 | SLRENDFWEIELDRQELTYQELLR | 3.26
181 | SLRENDFAEIELDRQELTYQELLR | 3.83
182 | SLRENDFQEIELDRQELTYQELLR | 4.23
183 | SLRENDFSEIELDRQELTYQELLR | 3.34
184 | SLRENDFTEIELDRQELTYQELLR | 4.23
185 | SLRENDFDEIELDRQELTYQELLR | 4.56
186 | SLRENDFNEIELDRQELTYQELLR | 4.1
187 | SLRENDFPEIELDRQELTYQELLR | 3.89
188 | SLRENDFVEIELDRQELTYQELLR | 3.62

Reference: the supplement of paper PMC10567573
